Results as given in paper PMC3500698 (Science signaling, 2012).

Assays:
JNK1, p38α and ERK2 = test: MAPK interaction profile from FP binding affinities; set-up: species or system human; details: from FP binding affinities to JNK1, p38α and ERK2
p38α (human) = p38α (human) (UniProt Q16539); test: fluorescence polarisation
[1] = target: extracellular signal-regulated kinase 2 (ERK2) (human) (UniProt P28482); test: fluorescence polarisation
p38α = p38α (human, UniProt Q16539 1-360); test: fluorescence polarisation
Chain of p38α (Q16539 whole entry): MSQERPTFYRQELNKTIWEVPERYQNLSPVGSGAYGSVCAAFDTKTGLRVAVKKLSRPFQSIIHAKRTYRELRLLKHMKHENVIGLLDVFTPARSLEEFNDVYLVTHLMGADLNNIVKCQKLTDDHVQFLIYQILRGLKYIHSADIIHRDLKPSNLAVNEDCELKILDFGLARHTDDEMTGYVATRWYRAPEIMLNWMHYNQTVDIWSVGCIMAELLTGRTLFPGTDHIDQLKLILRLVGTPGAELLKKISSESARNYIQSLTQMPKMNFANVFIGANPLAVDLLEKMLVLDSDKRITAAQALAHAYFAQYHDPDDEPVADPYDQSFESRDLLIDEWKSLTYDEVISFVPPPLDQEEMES

[2] = target: extracellular signal-regulated kinase 2 (ERK2) (human, UniProt P28482); test: fluorescence polarisation
Chain of extracellular signal-regulated kinase 2 (ERK2) (P28482 whole entry): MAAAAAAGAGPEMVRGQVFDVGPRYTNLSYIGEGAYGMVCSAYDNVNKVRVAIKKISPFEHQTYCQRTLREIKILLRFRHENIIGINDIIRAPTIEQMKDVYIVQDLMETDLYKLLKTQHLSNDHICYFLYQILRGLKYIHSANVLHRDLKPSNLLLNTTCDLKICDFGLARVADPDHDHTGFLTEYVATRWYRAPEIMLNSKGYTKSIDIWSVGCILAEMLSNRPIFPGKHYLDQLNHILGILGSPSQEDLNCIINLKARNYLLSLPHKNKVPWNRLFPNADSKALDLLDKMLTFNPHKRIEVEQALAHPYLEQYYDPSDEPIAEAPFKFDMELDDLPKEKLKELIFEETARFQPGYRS

Chain of p38α (human) (Q16539 whole entry): as the sequence (Q16539 whole entry) above
Chain of extracellular signal-regulated kinase 2 (ERK2) (human) (P28482 whole entry): as the sequence (P28482 whole entry) above

Question: Which results are given for LERPSRDHLYLPLE [pepNFAT4]?
Answer: MAPK binding profile (in words) (JNK1, p38α and ERK2): bound JNK1 exclusively; MAPK binding profile (in words) (JNK1, p38α and ERK2; listed as NFAT4): JNK-specific

Question: For “pepMK2 (C-terminal MAPK docking peptide of MK2)”, which fold preference for the cognate MAPK (p38α against ERK2) (p38α (human)) is on record?
Answer: 400 fold

Question: Which fold preference for the cognate MAPK (ERK2 against p38α) [1] does the source give for “pepRSK1 (C-terminal MAPK docking peptide of RSK1)” here?
Answer: 20 fold

Question: With LSLSSLAASSLAKRRQQ (designed binder) [pepSynth-revD (artificially designed revD-motif peptide)] as the molecule, how does the Kd (p38α) read?
Answer: ~30 µM

Question: What about the Kd [2] of the same molecule?
Answer: ~10 µM
